Experimental data taken from article PMC6581707.

Assays:
[1] = target: CS/DS 4-O-endosulfatase endoVB4SF from Vibrio sp. FC509 (Vibrio sp. FC509); test: SEC; Superdex 200 10/300 GL, 10 mM Tris-HCl, 100 mM NaCl, pH 8.0, with or without 5 mM DTT; detection at 280 nm; monomer to dimer
[2] = target: exoPB4SF-Q5C mutant (Photobacterium sp. FC615); test: as above

Substance: CS/DS 4-O-endosulfatase endoVB4SF from Vibrio sp. FC509 (enzyme)
- stoichiometry N [1]: 2

Substance: exoPB4SF-Q5C mutant (enzyme)
- stoichiometry N [2]: 2
